Target: the molecule itself
Experiment: not stated; HEK293T cells with forced expression or knockdown of TOX and TOX2; bands told by apparent size (Supplementary Fig. 3B)

B1: TOX-Flag (full-length TOX) (natural protein, UniProt O94900 1-526, looked up)
chain: MDVRFYPPPAQPAAAPDAPCLGPSPCLDPYYCNKFDGENMYMSMTEPSQDYVPASQSYPGPSLESEDFNIPPITPPSLPDHSLVHLNEVESGYHSLCHPMNHNGLLPFHPQNMDLPEITVSNMLGQDGTLLSNSISVMPDIRNPEGTQYSSHPQMAAMRPRGQPADIRQQPGMMPHGQLTTINQSQLSAQLGLNMGGSNVPHNSPSPPGSKSATPSPSSSVHEDEGDDTSKINGGEKRPASDMGKKPKTPKKKKKKDPNEPQKPVSAYALFFRDTQAAIKGQNPNATFGEVSKIVASMWDGLGEEQKQVYKKKTEAAKKEYLKQLAAYRASLVSKSYSEPVDVKTSQPPQLINSKPSVFHGPSQAHSALYLSSHYHQQPGMNPHLTAMHPSLPRNIAPKPNNQMPVTVSIANMAVSPPPPLQISPPLHQHLNMQQHQPLTMQQPLGNQLPMQVQSALHSPTMQQGFTLQPDYQTIINPTSTAAQVVTQAMEYVRSGCRNPPPQPVDWNNDYCSSGGMQRDKALYLT
notes: TOX, full length (526 residues by the printed limits of TOX(C) 257-526), in pCDH vector; Both are written as this one molecule; source: HEK293T, transfected, in lysate; not shown: Flag, C-terminal, kept
Question: For B1, which “stoichiometry N” value is on record?
Answer: 2

— article PMC11519604, “TOX2 nuclear-cytosol translocation is linked to leukemogenesis of acute T-cell leukemia by repressing TIM3 transcription” (Cell Death and Differentiation, 2024)
